Reference: patent US20260240999A1, “METHODS FOR EX VIVO ENRICHMENT AND EXPANSION OF TUMOR REACTIVE T CELLS AND RELATED COMPOSITIONS THEREOF” (H. LEE MOFFITT CANCER CENTER AND RESEARCH INSTITUTE, INC., priority 2022, published 2026)

Experiments:
[1] = tested on: previously expanded human T cells from three healthy donors; assay: Cytokines, modulators and agonist antibodies with IL-2 on T cell number and memory phenotype; format: cell-based; details: for percent naïve and central memory T cells at Day 6: cytokine plus 300 IU/mL IL-2; for CD3+ cells/mL on Day 6: cytokine plus 300 IU/mL IL-2 vs IL-2 alone
Method: PBMC from three healthy donors were activated, expanded, and cryopreserved as described in Example 11. […] As previously described, stimulation of the healthy donor T cells prior to cryopreservation were carried out with anti-CD3 (OKT3) stimulation in order to mimic conditions present in the tumor microenvironment (TME).
Cells were next seeded into gas permeable 100M culture vessels and expanded for 7-14 days to achieve a large bank of T cells, and cryopreserved.
Cells were maintained in culture for 6 days, with a 50% medium exchange occurring at 3 days post culture initiation.
At the end of the culture period for all culture conditions, cells were assessed for cell count and sub-phenotypes of naïve and central memory T cells by flow cytometry by staining with CD45RA and CCR7 (naïve, CD45RA+ CCR7+; “central” memory, CD45RA-CCR7+).

[2] = tested on: previously expanded human T cells from three healthy donors; assay: Effect of T cell adjuvants on T cell viability (total viable CD3+ cell count); format: cell-based; details: 62.5 IU/ml-1000 IU/ml
Method: Cells were expanded from PBMC derived from Ficoll gradient separation from three healthy donor's apheresis material. […] Because the studies were carried out in healthy donors, stimulation of the T cells was carried out with anti-CD3 (OKT3) stimulation in order to mimic conditions present in the tumor microenvironment (TME).
Cells were next seeded into gas permeable 100M culture vessels and expanded for 7-14 days to achieve a large bank of T cells, and cryopreserved. […] Half of wells were additionally supplemented with 50 ng/mL OKT3, a human anti-CD3 monoclonal antibody. In total, 15 test adjuvant agents were tested for their impact on cell viability in the presence and absence of anti-CD3 activation (see Table E3). Cells were cultured for 6 days total, including a 50% medium exchange on culture day 3, and monitored for total viable CD3+ cell count.

[3] = at each of three tested concentrations (3.9, 250, and 1000 IU/mL)

| Molecule | percent naïve and central memory T cells at Day 6 [1] | CD3+ cells/mL on Day 6 [1] | dose response of cell number [2] | CD3+ cell number [1, 3] | percent naïve and central memory T cells [1, 3] |
| --- | --- | --- | --- | --- | --- |
| IL-7: recombinant cytokine (protein, UniProt P13232 26-177, looked up) Interleukin-7: DCDIEGKDGKQYESVLMVSIDQLLDSMKEIGSNCLNNEFNFFKRHICDANKEGMFLFRAARKLRQFLKMNSTGDFDLHLLKVSEGTTILLNCTGQVKGRKPAALGEAQPTKSLEENKSLKEQKKLNDLCFLKRLLQEIKTCWNKILMGTKEH | measured increase in the percent naïve and central memory T cells | increase in CD3+ cells/mL on Day 6 | dose dependent response, wherein cell number increased with increasing concentration |  |  |
| IL-35: heterodimeric protein of p35 subunit from IL-12 and EBI3 (protein, UniProt P29459 23-219; Q14213 21-229, looked up) Interleukin-12 subunit alpha: RNLPVATPDPGMFPCLHHSQNLLRAVSNMLQKARQTLEFYPCTSEEIDHEDITKDKTSTVEACLPLELTKNESCLNSRETSFITNGSCLASRKTSFMMALCLSSIYEDLKMYQVEFKTMNAKLLMDPKRQIFLDQNMLAVIDELMQALNFNSETVPQKSSLEEPDFYKTKIKLCILLHAFRIRAVTIDRVMSYLNAS Interleukin-27 subunit beta: RKGPPAALTLPRVQCRASRYPIAVDCSWTLPPAPNSTSPVSFIATYRLGMAARGHSWPCLQQTPTSTSCTITDVQLFSMAPYVLNVTAVHPWGSSSSFVPFITEHIIKPDPPEGVRLSPLAERQLQVQWEPPGSWPFPEIFSLKYWIRYKRQGAARFHRVGPIEATSFILRAVRPRARYYVQVAAQDLTDYGELSDWSLPATATMSLGK | measured increase in the percent naïve and central memory T cells | increase in CD3+ cells/mL on Day 6 |  |  |  |
| IL-27: recombinant cytokine, heterodimer of IL27A (p28) and EBI3 (protein, UniProt Q8NEV9 29-243; Q14213 21-229, looked up) Interleukin-27 subunit alpha: FPRPPGRPQLSLQELRREFTVSLHLARKLLSEVRGQAHRFAESHLPGVNLYLLPLGEQLPDVSLTFQAWRRLSDPERLCFISTTLQPFHALLGGLGTQGRWTNMERMQLWAMRLDLRDLQRHLRFQVLAAGFNLPEEEEEEEEEEEEERKGLLPGALGSALQGPAQVSWPQLLSTYRLLHSLELVLSRAVRELLLLSKAGHSVWPLGFPTLSPQP Interleukin-27 subunit beta: RKGPPAALTLPRVQCRASRYPIAVDCSWTLPPAPNSTSPVSFIATYRLGMAARGHSWPCLQQTPTSTSCTITDVQLFSMAPYVLNVTAVHPWGSSSSFVPFITEHIIKPDPPEGVRLSPLAERQLQVQWEPPGSWPFPEIFSLKYWIRYKRQGAARFHRVGPIEATSFILRAVRPRARYYVQVAAQDLTDYGELSDWSLPATATMSLGK | measured increase in the percent naïve and central memory T cells | increase in CD3+ cells/mL on Day 6 |  | significant increase in CD3+ cell number | significant increase in CD3+ cell number as well as percent naïve and central memory T cells |
| IL-23: recombinant cytokine, P19 (SEQ ID NO: 1) and P40 (SEQ ID NO: 2) subunits (protein, P19, UniProt Q9NPF7 20-189; P40, UniProt P29460 23-328) chain 1: RAVPGGSSPAWTQCQQLSQKLCTLAWSAHPLVGHMDLREEGDEETTNDVPHIQCGDGCDPQGLRDNSQFCLQRIHQGLIFYEKLLGSDIFTGEPSLLPDSPVGQLHASLLGLSQLLQPEGHHWETQQIPSLSPSQPWQRLLLRFKILRSLQAFVAVAARVFAHGAATLSP chain 2: IWELKKDVYVVELDWYPDAPGEMVVLTCDTPEEDGITWTLDQSSEVLGSGKTLTIQVKEFGDAGQYTCHKGGEVLSHSLLLLHKKEDGIWSTDILKDQKEPKNKTFLRCEAKNYSGRFTCWWLTTISTDLTFSVKSSRGSSDPQGVTCGAATLSAERVRGDNKEYEYSVECQEDSACPAAEESLPIEVMVDAVHKLKYENYTSSFFIRDIIKPDPPKNLQLKPLKNSRQVEVSWEYPDTWSTPHSYFSLTFCVQVQGKSKREKKDRVFTDKTSATVICRKNASISVRAQDRYYSSSWSEWASVPCS | measured increase in the percent naïve and central memory T cells | increase in CD3+ cells/mL on Day 6 |  |  |  |
